The target in data set [1] is T1, HILR-030 (cyclo-[Pro-Arg-Gly-Pro-Arg-Pro-Val-Trp-Trp-Gpa-Gpa-Trp-Trp-Gpa-Gpa-Trp-Trp]).
T1 chain: PRGPRPVWWXXWWXXWW

The next data set addresses T2, Ac-DEVD-CHO.
T2 chain: DEVD

B1: recombinant human caspase 3 enzyme (protein)
chain: SGISLDNSYKMDYPEMGLCIIINNKNFHKSTGMTSRSGTDVDAANLRETFRNLKYEVRNKNDLTREEIVELMRDVSKEDHSKRSSFVCVLLSHGEEGIIFGTNGPVDLKKITNFFRGDRCRSLTGKPKLFIIQACRGTELDCGIETDSGVDDDMACHKIPVEADFLYAYSTAPGYYSWRNSKDGSWFIQSLCAMLKQYADKLEFMHILTRVNRKVATEFESFSFDATFHAKKQIPCIVSMLTKELYFYH
B1: the “caspase-3 activity (Apo-ONE Homogeneous Caspase-3/7 assay, 2 h co-incubation with substrate or enzyme)” value in data set [1] is “Both DEVD-CHO and HILR-030 inhibited the caspase-3 activity in a dose-dependent fashion”. In the data set with Ac-DEVD-CHO, the “caspase-3 activity (Apo-ONE Homogeneous Caspase-3/7 assay, 2 h co-incubation with substrate or enzyme)” value was “Both DEVD-CHO and HILR-030 inhibited the caspase-3 activity in a dose-dependent fashion”; the “caspase-3 activity (Apo-ONE Homogeneous Caspase-3/7 assay, cleavage of Z-DEVD-R110, recombinant enzyme)” value was “Ac-DEVD-CHO inhibited the activity of caspase-3 in a dose-dependent manner, giving rise to IC50s within the expected range according to the inhibitor specification sheet”.

The record behind these values is patent publication US20190046600.
